From paper PMC6607443, “Systematic identification of recognition motifs for the hub protein LC8” (Life Science Alliance, 2019)

Molecular target: dynein light chain LC8 (UniProt P63167)
Experiment: ITC; peptide (500 μM) injected into 25 μM LC8 in the cell; 25°C; 50 mM sodium phosphate, 50 mM NaCl, 1 mM sodium azide, 5 mM β-mercaptoethanol, pH 7.5; single-site model; averages of two to three experiments

Sequence of dynein light chain LC8 (P63167 whole entry): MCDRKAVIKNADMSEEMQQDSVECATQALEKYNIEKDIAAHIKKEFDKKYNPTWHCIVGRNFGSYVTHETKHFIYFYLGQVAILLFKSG

- Kd: 10 µM
- stoichiometry N (peptide per LC8 chain): 1
Substance: HIV Tat-specific factor 1 (HTATSF1) peptide
